Reference: article PMC9352680, “A comprehensive thermodynamic model for RNA binding by the Saccharomyces cerevisiae Pumilio protein PUF4”
Positions count from the first letter of the chain named. Numbers in names are those of the source.

T1: PUF4 RNA-binding domain (Saccharomyces cerevisiae, UniProt P25339 537-888)
T1 sequence: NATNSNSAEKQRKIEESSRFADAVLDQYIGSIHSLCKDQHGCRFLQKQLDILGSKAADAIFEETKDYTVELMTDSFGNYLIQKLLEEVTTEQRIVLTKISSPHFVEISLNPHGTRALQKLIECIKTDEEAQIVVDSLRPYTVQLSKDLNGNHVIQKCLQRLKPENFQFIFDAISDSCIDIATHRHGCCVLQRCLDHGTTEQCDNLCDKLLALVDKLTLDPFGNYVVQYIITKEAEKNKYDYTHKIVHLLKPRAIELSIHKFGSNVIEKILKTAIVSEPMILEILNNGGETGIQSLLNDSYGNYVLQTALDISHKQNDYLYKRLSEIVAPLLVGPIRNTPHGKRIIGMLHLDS

B1: Ib_S4_P3E.1_K3.1_C3.1_H3.1_[T1A]_A3.1_F3.1_[T7C]_T3.1 (ssRNA)
RNA: UUUGACAACUGAUCGUUCUUUCUAGUAUACAUUCUUUCUCGAUCAGUUGUCUUU
B2: Ib_S4_P3E.1_K3.1_C3.1_H3.1_[T1G]_A3.1_[A6G]_F3.1_T3.1 (ssRNA)
RNA: B1 RNA with A24G, A29G, C30U
B3: Ic_S4_P3E.1_K3.1_C3.1_H3.1_A3.1_[A6T]_F3.1_[T7A]_T3.1 (ssRNA)
RNA: B1 RNA with A24U, A29U, C30A
B4: Ib_S4_P3E.1_K3.1_C3.1_H3.1_[T3C]_[A4C]_A3.1_F3.1_T3.1 (ssRNA)
RNA: B1 RNA with A24U, U26C, A27C, C30U
B5: Ib_S4_P3E.1_K3.1_C3.1_H3.1_[T3C]_[A4G]_A3.1_F3.1_T3.1 (ssRNA)
RNA: B1 RNA with A24U, U26C, A27G, C30U
B6: Ib_S4_P3E.1_K3.1_C3.1_H3.1_A3.1_[A6G]_F3.1_[T7C]_T3.1 (ssRNA)
RNA: B1 RNA with A24U, A29G
B7: Ib_S4_P3E.1_K3.1_C3.1_H3.1_A3.1_[A6T]_F3.1_[T7C]_T3.1 (ssRNA)
RNA: B1 RNA with A24U, A29U
B8: Ib_S4_P3E.1_K3.1_C3.1_H3.1_[G2C]_A3.1_F3.1_[T7C]_T3.1 (ssRNA)
RNA: B1 RNA with A24U, G25C
B9: Ic_S4_P3E.1_K3.1_C3.1_H3.1_A3.1_[T5A]_F3.1_[A8G]_T3.1 (ssRNA)
RNA: B1 RNA with A24U, U28A, C30U, A31G
B10: Ib_S4_P3E.1_K3.1_C3.1_H3.1_[G2A]_[A4G]_A3.1_F3.1_T3.1 (ssRNA)
RNA: B1 RNA with A24U, G25A, A27G, C30U
B11: Ib_S4_P3E.1_K3.1_C3.1_H3.1_[T1A]_A3.1_[A6G]_F3.1_T3.1 (ssRNA)
RNA: B1 RNA with A29G, C30U
B12: Ib_S4_P3E.1_K3.1_C3.1_H3.1_[G2T]_A3.1_[A6T]_F3.1_T3.1 (ssRNA)
RNA: B1 RNA with A24U, G25U, A29U, C30U
B13: Ib_S4_P3E.1_K3.1_C3.1_H3.1_[G2C]_[A4T]_A3.1_F3.1_T3.1 (ssRNA)
RNA: B1 RNA with A24U, G25C, A27U, C30U
B14: Ic_S4_P3E.1_K3.1_C3.1_H3.1_A3.1_[T5C]_F3.1_[A8C]_T3.1 (ssRNA)
RNA: B1 RNA with A24U, U28C, C30U, A31C
B15: Ib_S4_P3E.1_K3.1_C3.1_H3.1_[G2A]_A3.1_[A6G]_F3.1_T3.1 (ssRNA)
RNA: B1 RNA with A24U, G25A, A29G, C30U
B16: Ib_S4_P3E.1_K3.1_C3.1_H3.1_[T3C]_[A4T]_A3.1_F3.1_T3.1 (ssRNA)
RNA: B1 RNA with A24U, U26C, A27U, C30U
B17: Ib_S4_P3E.1_K3.1_C3.1_H3.1_[T1A]_A3.1_[T5A]_F3.1_T3.1 (ssRNA)
RNA: B1 RNA with U28A, C30U
B18: Ib_S4_P3E.1_K3.1_C3.1_H3.1_[G2T]_[A4G]_A3.1_F3.1_T3.1 (ssRNA)
RNA: B1 RNA with A24U, G25U, A27G, C30U
B19: Ib_S4_P3E.1_K3.1_C3.1_H3.1_[T1G]_[A4C]_A3.1_F3.1_T3.1 (ssRNA)
RNA: B1 RNA with A24G, A27C, C30U
B20: Ib_S4_P3E.1_K3.1_C3.1_H3.1_[G2A]_A3.1_[T5C]_F3.1_T3.1 (ssRNA)
RNA: B1 RNA with A24U, G25A, U28C, C30U
B21: Ic_S4_P3E.1_K3.1_C3.1_H3.1_A3.1_[A6G]_F3.1_[A8T]_T3.1 (ssRNA)
RNA: B1 RNA with A24U, A29G, C30U, A31U
B22: Ib_S4_P3E.1_K3.1_C3.1_H3.1_A3.1_[A6T]_F3.1_[A8T]_T3.1 (ssRNA)
RNA: B1 RNA with A24U, A29U, C30U, A31U
B23: Ib_S4_P3E.1_K3.1_C3.1_H3.1_[G2C]_A3.1_F3.1_[A8T]_T3.1 (ssRNA)
RNA: B1 RNA with A24U, G25C, C30U, A31U
B24: Ib_S4_P3E.1_K3.1_C3.1_H3.1_[T1A]_A3.1_[A6C]_F3.1_T3.1 (ssRNA)
RNA: B1 RNA with A29C, C30U
B25: Ib_S4_P3E.1_K3.1_C3.1_H3.1_[T1A]_[A4C]_A3.1_F3.1_T3.1 (ssRNA)
RNA: B1 RNA with A27C, C30U
B26: Ib_S4_P3E.1_K3.1_C3.1_H3.1_[A4C]_A3.1_F3.1_[A8T]_T3.1 (ssRNA)
RNA: B1 RNA with A24U, A27C, C30U, A31U
B27: Ib_S4_P3E.1_K3.1_C3.1_H3.1_[G2T]_A3.1_F3.1_[A8G]_T3.1 (ssRNA)
RNA: B1 RNA with A24U, G25U, C30U, A31G
B28: Ib_S4_P3E.1_K3.1_C3.1_H3.1_[G2A]_A3.1_[T5A]_F3.1_T3.1 (ssRNA)
RNA: B1 RNA with A24U, G25A, U28A, C30U
B29: Ib_S4_P3E.1_K3.1_C3.1_H3.1_[G2A]_A3.1_[A6T]_F3.1_T3.1 (ssRNA)
RNA: B1 RNA with A24U, G25A, A29U, C30U
B30: Ic_S4_P3E.1_K3.1_C3.1_H3.1_A3.1_[T5A]_F3.1_[T7C]_T3.1 (ssRNA)
RNA: B1 RNA with A24U, U28A
B31: Ib_S4_P3E.1_K3.1_C3.1_H3.1_[T3C]_A3.1_F3.1_[A8T]_T3.1 (ssRNA)
RNA: B1 RNA with A24U, U26C, C30U, A31U
B32: Ib_S4_P3E.1_K3.1_C3.1_H3.1_[G2C]_A3.1_F3.1_[T7A]_T3.1 (ssRNA)
RNA: B1 RNA with A24U, G25C, C30A
B33: Ib_S4_P3E.1_K3.1_C3.1_H3.1_[T1G]_A3.1_[T5C]_F3.1_T3.1 (ssRNA)
RNA: B1 RNA with A24G, U28C, C30U
B34: Ib_S4_P3E.1_K3.1_C3.1_H3.1_[T1G]_A3.1_[A6C]_F3.1_T3.1 (ssRNA)
RNA: B1 RNA with A24G, A29C, C30U
B35: Ia_S4_P3E.1_K3.1_C3.1_H3.1_A3.1_F3.1_[T7A]_T3.1 (ssRNA)
RNA: B1 RNA with A24U, C30A
B36: Ib_S4_P3E.1_K3.1_C3.1_H3.1_[A4G]_A3.1_F3.1_[T7A]_T3.1 (ssRNA)
RNA: B1 RNA with A24U, A27G, C30A
B37: Ib_S4_P3E.1_K3.1_C3.1_H3.1_[T1C]_A3.1_F3.1_[A8T]_T3.1 (ssRNA)
RNA: B1 RNA with A24C, C30U, A31U
B38: Ib_S4_P3E.1_K3.1_C3.1_H3.1_[G2C]_[A4C]_A3.1_F3.1_T3.1 (ssRNA)
RNA: B1 RNA with A24U, G25C, A27C, C30U
B39: Ib_S4_P3E.1_K3.1_C3.1_H3.1_A3.1_[A6G]_F3.1_[A8G]_T3.1 (ssRNA)
RNA: B1 RNA with A24U, A29G, C30U, A31G
B40: Ic_S4_P3E.1_K3.1_C3.1_H3.1_A3.1_[A6C]_F3.1_[A8T]_T3.1 (ssRNA)
RNA: B1 RNA with A24U, A29C, C30U, A31U
B41: Ib_S4_P3E.1_K3.1_C3.1_H3.1_A3.1_[T5A]_F3.1_[T7A]_T3.1 (ssRNA)
RNA: B1 RNA with A24U, U28A, C30A
B42: Ib_S4_P3E.1_K3.1_C3.1_H3.1_[A4G]_A3.1_[T5C]_F3.1_T3.1 (ssRNA)
RNA: B1 RNA with A24U, A27G, U28C, C30U
B43: Ib_S4_P3E.1_K3.1_C3.1_H3.1_[G2C]_[A4G]_A3.1_F3.1_T3.1 (ssRNA)
RNA: B1 RNA with A24U, G25C, A27G, C30U
B44: Ib_S4_P3E.1_K3.1_C3.1_H3.1_[T1C]_A3.1_[T5A]_F3.1_T3.1 (ssRNA)
RNA: B1 RNA with A24C, U28A, C30U
B45: Ib_S4_P3E.1_K3.1_C3.1_H3.1_[G2C]_A3.1_F3.1_[A8C]_T3.1 (ssRNA)
RNA: B1 RNA with A24U, G25C, C30U, A31C
B46: Ib_S4_P3E.1_K3.1_C3.1_H3.1_[A4C]_A3.1_F3.1_[T7C]_T3.1 (ssRNA)
RNA: B1 RNA with A24U, A27C
B47: Ib_S4_P3E.1_K3.1_C3.1_H3.1_[T1A]_A3.1_[T5C]_F3.1_T3.1 (ssRNA)
RNA: B1 RNA with U28C, C30U
B48: Ib_S4_P3E.1_K3.1_C3.1_H3.1_[T1C]_A3.1_[A6T]_F3.1_T3.1 (ssRNA)
RNA: B1 RNA with A24C, A29U, C30U
B49: Ib_S4_P3E.1_K3.1_C3.1_H3.1_A3.1_[A6T]_F3.1_[A8C]_T3.1 (ssRNA)
RNA: B1 RNA with A24U, A29U, C30U, A31C
B50: Ib_S4_P3E.1_K3.1_C3.1_H3.1_[G2A]_A3.1_F3.1_[T7A]_T3.1 (ssRNA)
RNA: B1 RNA with A24U, G25A, C30A
B51: Ib_S4_P3E.1_K3.1_C3.1_H3.1_[T1C]_[A4C]_A3.1_F3.1_T3.1 (ssRNA)
RNA: B1 RNA with A24C, A27C, C30U
B52: Ib_S4_P3E.1_K3.1_C3.1_H3.1_[T1G]_A3.1_F3.1_[A8T]_T3.1 (ssRNA)
RNA: B1 RNA with A24G, C30U, A31U
B53: Ib_S4_P3E.1_K3.1_C3.1_H3.1_[T1A]_A3.1_[A6T]_F3.1_T3.1 (ssRNA)
RNA: B1 RNA with A29U, C30U

Target: T1, PUF4 RNA-binding domain
Assay: Mg; RNA-MaP; 20 mM Na-HEPES pH 7.4, 30 mM KOAc, 0.75 mM MgCl2, 0.1% Tween-20, 5% glycerol, 0.1 mg/mL BSA, 2 mM DTT; 25 C; 0.0125-409.6 nM protein
Conditions: tags: N-His6-TEV cleaved; C-SNAP kept, Cy3B-labelled; label: tethered on chip by stalled RNA polymerase

Binder | Kd
ACAAACUAUAUAUUAACAAAC (ssRNA) [Ia_S3_P4E.1_K4.1_C4.1_H4.1_[G2A]_A4.1_F4.1_T4.1] | 33.9 nM
ACAAACAGUAUAUAACAAAC (ssRNA) [Ia_S3_P3E.1_K3.1_C3.1_H3.1_[T1A]_A3.1_F3.1_T3.1] | 2000 nM
ACAAACUGUCUUAUUAACAAAC (ssRNA) [Ia_S3_P5E.1_K5.1_C5.1_H5.1_[A4C]_A5.1_F5.1_T5.1] | 365 nM
ACAAACAGUAUUAUUAACAAAC (ssRNA) [Ia_S3_P5E.1_K5.1_C5.1_H5.1_[T1A]_A5.1_F5.1_T5.1] | 1980 nM
B1 | > 2300 nM
B2 | 198 nM
B3 | 82 nM
B4 | > 2300 nM
B5 | 1160 nM
B6 | 295 nM
B7 | 121 nM
B8 | 610 nM
B9 | 296 nM
B10 | 5.75 nM
B11 | 225 nM
B12 | > 2300 nM
B13 | 1800 nM
B14 | 9.55 nM
B15 | 72.2 nM
B16 | 2120 nM

Binder | Kd
B17 | > 2300 nM
B18 | 3.32 nM
B19 | > 2300 nM
B20 | 383 nM
B21 | 25.7 nM
B22 | 11.9 nM
B23 | 1640 nM
B24 | > 2300 nM
B25 | > 2300 nM
B26 | 289 nM
B27 | > 2300 nM
B28 | 2080 nM
B29 | 1900 nM
B30 | 374 nM
B31 | 1510 nM
B32 | > 2300 nM
B33 | 1810 nM
B34 | > 2300 nM
B35 | 54.5 nM
B36 | 35.5 nM

Binder | Kd
B37 | 645 nM
B38 | > 2300 nM
B39 | 38.2 nM
B40 | 13.5 nM
B41 | 262 nM
B42 | 22.4 nM
B43 | 2.45 nM
B44 | > 2300 nM
B45 | > 2300 nM
B46 | > 2300 nM
B47 | > 2300 nM
B48 | > 2300 nM
B49 | 28.4 nM
B50 | > 2300 nM
B51 | > 2300 nM
B52 | > 2300 nM
B53 | > 2300 nM
UCUCUUUGCAUAUAUCUCUU (ssRNA) [Ia_S1_P3E.1_K3.1_C3.1_H3.1_[T3C]_A3.1_F3.1_T3.1] | > 2300 nM
